From patent US20210403506A1 (XDCEXPLORER SHANGHAI, published 2021)
Square brackets hold non-standard residues; d marks the D form. Ends that are not written are not given here. * marks the point of attachment. Pro(diF) = difluoro-proline, as coded in the source; PEG8 = NCCOCCOCCOCCOCCOCCOCCOCCOCCC(=O)O; dOic = O=C(O)[C@H]1C[C@H]2CCCC[C@H]2N1; 1Nal = N[C@@H](Cc1cccc2ccccc12)C(=O)O; 2Nal = N[C@@H](Cc1ccc2ccccc2c1)C(=O)O; dNMeY = CN[C@H](Cc1ccc(O)cc1)C(=O)O; Hydrocinnamoyl = O=C(CCc1ccccc1)*; NMehLeu = CN[C@@H](CCC(C)C)C(=O)O; Palmitoyl = CCCCCCCCCCCCCCCC(=O)*; NMeF = CN[C@@H](Cc1ccccc1)C(=O)O; Myristoyl = CCCCCCCCCCCCCC(=O)*; Tic = O=C(O)[C@@H]1Cc2ccccc2CN1; dTic = O=C(O)[C@H]1Cc2ccccc2CN1; NMeL = CN[C@@H](CC(C)C)C(=O)O; Lauroyl = CCCCCCCCCCCC(=O)*; NHoSer = not defined here; NMeS = CN[C@@H](CO)C(=O)O; hSer = N[C@@H](CCO)C(=O)O; Thz = O=C(O)[C@@H]1CSCN1; dTi1c = not defined here; βAla = NCCC(=O)O

B1: YW-148 (peptide)
peptide: [dNMeY]F[NMeL][Thz][dS]Q[2Nal][dA][Tic]S-OH
modifications: N-terminus assumed
SMILES: CN[C@H](Cc1ccc(O)cc1)C(=O)N[C@@H](Cc1ccccc1)C(=O)N(C)[C@@H](CC(C)C)C(=O)N1CSC[C@H]1C(=O)N[C@H](CO)C(=O)N[C@@H](CCC(N)=O)C(=O)N[C@@H](Cc1ccc2ccccc2c1)C(=O)N[C@H](C)C(=O)N1Cc2ccccc2C[C@H]1C(=O)N[C@@H](CO)C(=O)O
B2: YW-153 (peptide)
peptide: [dY]F[NMeL]P[dS]QF[dA][dTi1c]S-OH
modifications: reading uncertain; also: printed as (D-Tyr)-Phe-(NMe-Leu)-Pro-(D-Ser)-Gln-Phe-(D-Ala)-(D-Ti1c)-Ser
B3: YW-161 (peptide)
peptide: Hydrocinnamoyl-[dY]F[NMeL]P[dS]QF[dA][Tic]S-NH2
SMILES: CC(C)C[C@@H](C(=O)N1CCC[C@H]1C(=O)N[C@H](CO)C(=O)N[C@@H](CCC(N)=O)C(=O)N[C@@H](Cc1ccccc1)C(=O)N[C@H](C)C(=O)N1Cc2ccccc2C[C@H]1C(=O)N[C@@H](CO)C(N)=O)N(C)C(=O)[C@H](Cc1ccccc1)NC(=O)[C@@H](Cc1ccc(O)cc1)NC(=O)CCc1ccccc1
B4: YW-162 (peptide)
peptide: [dNMeY]F[NMeL]P[dS]Q[1Nal][dA][Tic][NMeS]-OH
modifications: N-terminus assumed
SMILES: CN[C@H](Cc1ccc(O)cc1)C(=O)N[C@@H](Cc1ccccc1)C(=O)N(C)[C@@H](CC(C)C)C(=O)N1CCC[C@H]1C(=O)N[C@H](CO)C(=O)N[C@@H](CCC(N)=O)C(=O)N[C@@H](Cc1cccc2ccccc12)C(=O)N[C@H](C)C(=O)N1Cc2ccccc2C[C@H]1C(=O)N(C)[C@@H](CO)C(=O)O
B5: YW-163 (peptide)
peptide: [dNMeY]F[NMeL]P[dS]QF[dA][Tic]S-OH
modifications: N-terminus assumed
SMILES: CN[C@H](Cc1ccc(O)cc1)C(=O)N[C@@H](Cc1ccccc1)C(=O)N(C)[C@@H](CC(C)C)C(=O)N1CCC[C@H]1C(=O)N[C@H](CO)C(=O)N[C@@H](CCC(N)=O)C(=O)N[C@@H](Cc1ccccc1)C(=O)N[C@H](C)C(=O)N1Cc2ccccc2C[C@H]1C(=O)N[C@@H](CO)C(=O)O
B6: YW-100 (peptide)
peptide: [dY]F[NMeF]P[dS]QF[dA][Tic]S-OH
modifications: N-terminus assumed
SMILES: C[C@@H](NC(=O)[C@H](Cc1ccccc1)NC(=O)[C@H](CCC(N)=O)NC(=O)[C@@H](CO)NC(=O)[C@@H]1CCCN1C(=O)[C@H](Cc1ccccc1)N(C)C(=O)[C@H](Cc1ccccc1)NC(=O)[C@H](N)Cc1ccc(O)cc1)C(=O)N1Cc2ccccc2C[C@H]1C(=O)N[C@@H](CO)C(=O)O
B7: YW-164 (peptide)
peptide: [dY]F[NMeL]P[dS]Q[2Nal][dA][Tic]S-OH
modifications: N-terminus assumed
SMILES: CC(C)C[C@@H](C(=O)N1CCC[C@H]1C(=O)N[C@H](CO)C(=O)N[C@@H](CCC(N)=O)C(=O)N[C@@H](Cc1ccc2ccccc2c1)C(=O)N[C@H](C)C(=O)N1Cc2ccccc2C[C@H]1C(=O)N[C@@H](CO)C(=O)O)N(C)C(=O)[C@H](Cc1ccccc1)NC(=O)[C@H](N)Cc1ccc(O)cc1
B8: YW-165 (peptide)
peptide: [dY]F[NMeL]P[dS]Q[1Nal][dA][Tic]S-OH
modifications: N-terminus assumed
SMILES: CC(C)C[C@@H](C(=O)N1CCC[C@H]1C(=O)N[C@H](CO)C(=O)N[C@@H](CCC(N)=O)C(=O)N[C@@H](Cc1cccc2ccccc12)C(=O)N[C@H](C)C(=O)N1Cc2ccccc2C[C@H]1C(=O)N[C@@H](CO)C(=O)O)N(C)C(=O)[C@H](Cc1ccccc1)NC(=O)[C@H](N)Cc1ccc(O)cc1
B9: YW-166 (peptide)
peptide: [dY]F[NMeL]P[dS]QF[dA][Tic][NMeS]-OH
modifications: N-terminus assumed
SMILES: CC(C)C[C@@H](C(=O)N1CCC[C@H]1C(=O)N[C@H](CO)C(=O)N[C@@H](CCC(N)=O)C(=O)N[C@@H](Cc1ccccc1)C(=O)N[C@H](C)C(=O)N1Cc2ccccc2C[C@H]1C(=O)N(C)[C@@H](CO)C(=O)O)N(C)C(=O)[C@H](Cc1ccccc1)NC(=O)[C@H](N)Cc1ccc(O)cc1
B10: YW-167 (peptide)
peptide: [dNMeY]F[NMeL]P[dS]Q[2Nal][dA][Tic]S-OH
modifications: N-terminus assumed
SMILES: CN[C@H](Cc1ccc(O)cc1)C(=O)N[C@@H](Cc1ccccc1)C(=O)N(C)[C@@H](CC(C)C)C(=O)N1CCC[C@H]1C(=O)N[C@H](CO)C(=O)N[C@@H](CCC(N)=O)C(=O)N[C@@H](Cc1ccc2ccccc2c1)C(=O)N[C@H](C)C(=O)N1Cc2ccccc2C[C@H]1C(=O)N[C@@H](CO)C(=O)O
B11: YW-168 (peptide)
peptide: [dNMeY]F[NMeL]P[dS]Q[1Nal][dA][Tic]S-OH
modifications: N-terminus assumed
SMILES: CN[C@H](Cc1ccc(O)cc1)C(=O)N[C@@H](Cc1ccccc1)C(=O)N(C)[C@@H](CC(C)C)C(=O)N1CCC[C@H]1C(=O)N[C@H](CO)C(=O)N[C@@H](CCC(N)=O)C(=O)N[C@@H](Cc1cccc2ccccc12)C(=O)N[C@H](C)C(=O)N1Cc2ccccc2C[C@H]1C(=O)N[C@@H](CO)C(=O)O
B12: YW-171 (peptide)
peptide: [dY]F[NMeL]P[dS]QF[dA][Tic][hSer]-OH
modifications: N-terminus assumed
SMILES: CC(C)C[C@@H](C(=O)N1CCC[C@H]1C(=O)N[C@H](CO)C(=O)N[C@@H](CCC(N)=O)C(=O)N[C@@H](Cc1ccccc1)C(=O)N[C@H](C)C(=O)N1Cc2ccccc2C[C@H]1C(=O)N[C@@H](CCO)C(=O)O)N(C)C(=O)[C@H](Cc1ccccc1)NC(=O)[C@H](N)Cc1ccc(O)cc1
B13: YW-172 (peptide)
peptide: [dY]F[NMeL]P[dS]QF[dA][Tic][NHoSer]-OH
modifications: reading uncertain; also: printed as (D-Tyr)-Phe-(NMe-Leu)-Pro-(D-Ser)-Gln-Phe-(D-Ala)-Tic-(NHoSer)
B14: YW-174 (peptide)
peptide: [dY]F[NMeL][Pro(diF)][dS]QF[dA][Tic]S-OH
B15: YW-175 (peptide)
peptide: [dY]F[NMeL]P[dHoSer]QF[dA][Tic]S-OH
B16: YW-176 (peptide)
peptide: [dY]F[NMeL]P[dS]QF[dA][dOic]S-OH
B17: YW-101 (peptide)
peptide: [dY]F[NMehLeu]P[dS]QF[dA][Tic]S-OH
modifications: N-terminus assumed
SMILES: CC(C)CC[C@@H](C(=O)N1CCC[C@H]1C(=O)N[C@H](CO)C(=O)N[C@@H](CCC(N)=O)C(=O)N[C@@H](Cc1ccccc1)C(=O)N[C@H](C)C(=O)N1Cc2ccccc2C[C@H]1C(=O)N[C@@H](CO)C(=O)O)N(C)C(=O)[C@H](Cc1ccccc1)NC(=O)[C@H](N)Cc1ccc(O)cc1
B18: YW-177 (peptide)
peptide: [dY]F[NMeL]P[dS]QF[dA][Tic][NMeHoSer]-OH
B19: YW-178 (peptide)
peptide: {Palmitoyl-PEG8}-GG[dNMeY]F[NMeL]P[dS]Q[2Nal][dA][Tic][NMeS]
B20: YW-179 (peptide)
peptide: {Palmitoyl-PEG8}-[βAla][βAla][dNMeY]F[NMeL]P[dS]Q[2Nal][dA][Tic][NMeS]
B21: YW-180 (peptide)
peptide: {Myristoyl-PEG8}-[βAla][βAla][dNMeY]F[NMeL]P[dS]Q[2Nal][dA][Tic][NMeS]
B22: YW-181 (peptide)
peptide: {Lauroyl-PEG8}-[βAla][βAla][dNMeY]F[NMeL]P[dS]Q[2Nal][dA][Tic][NMeS]
B23: YW-182 (peptide)
peptide: [dY]F[NMeL]P[dS]QF[dA][dTic][NMeS]
B24: YW-183 (peptide)
peptide: [dY]F[NEtL]P[dS]QF[dA][Tic]S
B25: YW-184 (peptide)
peptide: [dY]F[NPrL]P[dS]QF[dA][Tic]S
B26: YW-185 (peptide)
peptide: Hydrocinnamoyl-[dY]F[NEtL]P[dS]QF[dA][Tic]S

target: T1, human Chemokine like receptor 1 (human, UniProt Q99788 1-373); assay: cell-based or functional assay
T1 sequence (looked up): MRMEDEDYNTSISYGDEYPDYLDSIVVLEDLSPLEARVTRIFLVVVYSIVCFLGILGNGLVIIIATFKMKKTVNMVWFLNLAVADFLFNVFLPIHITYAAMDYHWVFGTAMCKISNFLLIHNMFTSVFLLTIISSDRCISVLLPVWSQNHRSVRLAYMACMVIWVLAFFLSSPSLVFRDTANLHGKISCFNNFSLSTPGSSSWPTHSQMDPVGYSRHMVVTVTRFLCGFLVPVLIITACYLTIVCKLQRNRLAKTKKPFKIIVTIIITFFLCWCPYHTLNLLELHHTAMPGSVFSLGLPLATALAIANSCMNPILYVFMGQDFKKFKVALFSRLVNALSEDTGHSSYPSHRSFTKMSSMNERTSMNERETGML

In order of falling “EC50 (µM), activation of Tango CMKLR1-bla U2OS cells” value:
1. B15  0.091 µM
2. B6  0.042 µM
3. B23  0.041 µM
4. B12  0.029 µM
5. B18  0.025 µM
6. B25  0.016 µM
7. B24  0.0092 µM
8. B2  0.0085 µM
9. B26  0.0059 µM
10. B13  0.0058 µM
11. B9  0.005 µM
12. B16  0.0038 µM
13. B3  0.003 µM
14. B17  0.0029 µM
15. B4  0.0026 µM
16. B5  0.0022 µM
17. B22  0.0022 µM
18. B19  0.0021 µM
19. B20  0.0021 µM
20. B8  0.0015 µM
21. B21  0.0014 µM
22. B11  0.0012 µM
23. B14  0.0012 µM
24. B7  0.0011 µM
25. B10  0.0008 µM
26. B1  0.0005 µM
